Among the data in PMC9747964 (Nature Communications, 2022) are binding result and binding signal values, retold here.

What all share (settings): protein: recombinant; tags: as P1; blunt
The target of data set [1] is T1, ComEAGs-A108Y (Geobacillus stearothermophilus (ATCC …, UniProt A0A0K9HI54 60-207, A108Y)).
T1 sequence: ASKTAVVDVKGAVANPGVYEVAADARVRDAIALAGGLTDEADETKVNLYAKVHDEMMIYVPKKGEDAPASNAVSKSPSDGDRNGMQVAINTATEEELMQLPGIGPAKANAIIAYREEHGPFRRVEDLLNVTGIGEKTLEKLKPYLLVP
The data set can be described thus: MW-AUC; 1.5 uM DNA, 5:1 and 10:1 protein:DNA; >90% DNA bound; ~2:1 complex, 3.3-3.5 S; MW-AUC: 10 mM Tris pH 8, 100 mM KCl, 20 C; EMSA: 10 mM Tris pH 8, 100 mM KCl, 2.5% glycerol, 0.5 mM EDTA, 1 mM MgCl2, room temperature 15 min, 8% native gel in.

The target of data set [2] is T1, ComEAGs-A108Y. The data set can be described thus: MW-AUC; 1.5 uM DNA, 10:1 protein:DNA; >90% DNA bound; ~4.7:1 complex, 6.3 S; MW-AUC: 10 mM Tris pH 8, 100 mM KCl, 20 C; EMSA: 10 mM Tris pH 8, 100 mM KCl, 2.5% glycerol, 0.5 mM EDTA, 1 mM MgCl2, room temperature 15 min, 8% native gel in.
A further data set concerns the target T2, ComEAGs-K201A (Geobacillus stearothermophilus (ATCC …, UniProt A0A0K9HI54 60-207, K201A)).
T2 sequence: T1 sequence with Y49A, K142A
The experiment in a line: EMSA; 0.5 uM DNA, 1 mM MgCl2; MW-AUC: 10 mM Tris pH 8, 100 mM KCl, 20 C; EMSA: 10 mM Tris pH 8, 100 mM KCl, 2.5% glycerol, 0.5 mM EDTA, 1 mM MgCl2, room temperature 15 min, 8% native gel in.

A further data set deals with T3, ComEAGs-K166A (Geobacillus stearothermophilus (ATCC …, UniProt A0A0K9HI54 60-207, K166A)).
T3 sequence: T1 sequence with Y49A, K107A
Described as above.

Where a chain is given by its changes, count along the chain named.

B1: EAGs14bp (dsDNA)
DNA 1: GTAGGACCATCTGC
DNA 2: GCAGATGGTCCTAC
On to B1, for which the binding result with ComEAGs-A108Y [1] is recorded as “binds”.

B2: EAGs40bp (dsDNA)
DNA 1: CGTTAGCACTGTGAATATCACTACAGCAACCTTAGAATCG
DNA 2: CGATTCTAAGGTTGCTGTAGTGATATTCACAGTGCTAACG
As for B2, in the data set with ComEAGs-A108Y [2], the binding result is listed as “binds”.

B3: EAGs30bp (dsDNA)
DNA 1: GCACTGTGAATATCACTACAGCAACCTTAG
DNA 2: CTAAGGTTGCTGTAGTGATATTCACAGTGC
On to B3, for which the binding signal with ComEAGs-K201A was ~2 fold decrease in apparent affinity vs wild-type. Moreover, in the data set with ComEAGs-K166A, the binding result is recorded as “no binding”.
